T1: StFliD_(1–467) L443R mutant (Salmonella Typhimurium, UniProt P16328 1-467, L443R)
T1 construct: FliD of Salmonella Typhimurium, residues 1–467, with L443R; Monomer by SEC-MALS; also called StFliD L443R; FliD (L443R)
T1 sequence: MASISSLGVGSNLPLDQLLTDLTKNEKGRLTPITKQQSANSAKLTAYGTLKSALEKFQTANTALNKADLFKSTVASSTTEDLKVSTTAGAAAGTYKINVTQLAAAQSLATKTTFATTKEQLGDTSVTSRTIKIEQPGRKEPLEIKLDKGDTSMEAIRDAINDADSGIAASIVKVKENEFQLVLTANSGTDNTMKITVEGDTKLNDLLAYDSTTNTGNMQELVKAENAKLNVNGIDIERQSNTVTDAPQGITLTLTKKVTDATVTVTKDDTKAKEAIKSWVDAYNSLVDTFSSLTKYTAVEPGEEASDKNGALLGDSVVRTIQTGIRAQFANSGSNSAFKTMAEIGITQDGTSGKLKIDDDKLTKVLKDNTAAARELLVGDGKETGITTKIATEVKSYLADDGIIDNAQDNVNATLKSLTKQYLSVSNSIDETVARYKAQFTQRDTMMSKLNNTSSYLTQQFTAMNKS

B1: StFliT_(1–94), C-terminus-truncated FliT from Salmonella Typhimurium (domain or fragment)
chain: MTSTVEFINRWQRIALLSQSLLELAQRGEWDLLLQQEVSYLQSIETVMEKQTPPGITRSIQDMVAGYIKQTLDNEQLLKGLLQQRLDELSSLIG
notes: FliT (flagellar export chaperone) of Salmonella Typhimurium, residues 1–94; At the glutathione-Sepharose step of the co-purification the GST tag was still on; it was cut by TEV protease before ion exchange and gel filtration; source: E. coli BL21(DE3); purified alone (glutathione-Sepharose, TEV cleavage, gel filtration) for ITC; co-expressed with StFliD constructs and co-purified for the …
B2: StFliD_(401–467) (domain or fragment)
chain: DGIIDNAQDNVNATLKSLTKQYLSVSNSIDETVARYKAQFTQLDTMMSKLNNTSSYLTQQFTAMNKS
notes: FliD of Salmonella Typhimurium, residues 401–467; The eluate was cleaved by TEV protease; also called C-terminal helix of StFliD; source: E. coli BL21(DE3), co-expressed with StFliT 1–94, co-purified (glutathione-Sepharose, TEV, Hitrap Q, Superdex 200)
B3: StFliD_(1–467), full-length FliD from Salmonella Typhimurium, wild type (natural protein)
chain: T1 sequence with R443L
notes: FliD (HAP2, flagellar filament capping protein) of Salmonella Typhimurium, residues 1–467; also called StFliD WT; HAP2; source: E. coli BL21(DE3); co-expressed with StFliT 1–94 and co-purified (glutathione-Sepharose, TEV, Hitrap Q, Superdex 200) for the complex
B4: StFliD_(1–300) (domain or fragment)
chain: MASISSLGVGSNLPLDQLLTDLTKNEKGRLTPITKQQSANSAKLTAYGTLKSALEKFQTANTALNKADLFKSTVASSTTEDLKVSTTAGAAAGTYKINVTQLAAAQSLATKTTFATTKEQLGDTSVTSRTIKIEQPGRKEPLEIKLDKGDTSMEAIRDAINDADSGIAASIVKVKENEFQLVLTANSGTDNTMKITVEGDTKLNDLLAYDSTTNTGNMQELVKAENAKLNVNGIDIERQSNTVTDAPQGITLTLTKKVTDATVTVTKDDTKAKEAIKSWVDAYNSLVDTFSSLTKYTAVE
notes: FliD of Salmonella Typhimurium, residues 1–300; Dimer at 100 μM by SEC-MALS; source: cloned into pRSF-duet
B5: StFliD_(45–467) (domain or fragment)
chain: TAYGTLKSALEKFQTANTALNKADLFKSTVASSTTEDLKVSTTAGAAAGTYKINVTQLAAAQSLATKTTFATTKEQLGDTSVTSRTIKIEQPGRKEPLEIKLDKGDTSMEAIRDAINDADSGIAASIVKVKENEFQLVLTANSGTDNTMKITVEGDTKLNDLLAYDSTTNTGNMQELVKAENAKLNVNGIDIERQSNTVTDAPQGITLTLTKKVTDATVTVTKDDTKAKEAIKSWVDAYNSLVDTFSSLTKYTAVEPGEEASDKNGALLGDSVVRTIQTGIRAQFANSGSNSAFKTMAEIGITQDGTSGKLKIDDDKLTKVLKDNTAAARELLVGDGKETGITTKIATEVKSYLADDGIIDNAQDNVNATLKSLTKQYLSVSNSIDETVARYKAQFTQLDTMMSKLNNTSSYLTQQFTAMNKS
notes: FliD of Salmonella Typhimurium, residues 45–467

Data set [1] concerns the target B3. Put plainly: ITC; 170 μM StFliT 1–94 injected (2.5 μL, every 200 s) into 26 μM StFliD in the cell; 298 K; buffer A (20 mM Tris-HCl pH 8.0, 200 mM NaCl). Conditions: both partners purified.
In data set [2] the target is T1, StFliD_(1–467) L443R mutant. The description is as above. Conditions: both partners purified.
Data set [3] concerns the target B1. Put plainly: SEC-MALS; co-purified complexes (Fig. 1b), concentration not given; Superdex 200 10/300 GL in buffer A (20 mM Tris-HCl pH 8.0, 200 mM NaCl), 0.4 mL/min. Conditions: both partners purified. In general terms: In gel filtration, larger molecules generally elute earlier.
The target in data set [4] is B1. Put plainly: SEC-MALS; samples at 10 μM (Fig. 2c); Superdex 200 10/300 GL in buffer A (20 mM Tris-HCl pH 8.0, 200 mM NaCl), 0.4 mL/min. Conditions: both partners purified.
Data set [5] has as its target B1. Put plainly: SEC-MALS; samples at 100 μM (Fig. 2c); Superdex 200 10/300 GL in buffer A (20 mM Tris-HCl pH 8.0, 200 mM NaCl), 0.4 mL/min. Conditions: both partners purified.
Data set [6] deals with the molecule itself. The data set is described as above.
Data set [7] concerns the molecule itself. Put plainly: SAXS; purified proteins and co-purified complexes, 1.0–10.0 mg/mL, 4 °C; ab initio envelopes (DAMMIF).

The record followed here is paper PMC5493677, “The role of the FliD C-terminal domain in pentamer formation and interaction with FliT” (Scientific Reports, 2017).

Substitutions are numbered along the chain they refer to.

A word on the Kd: it is the concentration at which binding is half-saturated. With B1, the Kd in data set [1] is 235.1 ± 0.8 nM; in data set [2], 3010 ± 100 nM.

Usually stoichiometry N stands for the number of molecules, sites or subunits per partner or assembly. B2: the “stoichiometry N” value in data set [3] amounted to 1 StFliD per StFliT.

With B3, the figures for the “stoichiometry N” value in data set [4] and in data set [5] were 1 StFliD per StFliT and 1 StFliD per StFliT (2:2), respectively.

For B4, the “stoichiometry N” value in data set [6] is 2.

In the case of B5, in data set [7], the binding result is given as “binds”.
